Assay [1] has as its target Orbicella faveolata caspase-3b (Orbicella faveolata). The assay can be described thus: SEC; Superdex75 Increase 10/300GL; protein 1-5 mg/ml, 200 ul loaded; 30 mM potassium phosphate, pH 7.5, 1 mM DTT; column calibrated with the LMW calibration kit; protomer to dimer. In general terms: In gel filtration, larger molecules generally elute earlier.
For assay [2], the target named is Porites astreoides caspase-3 (Porites astreoides). The description is as above.

For Orbicella faveolata caspase-3b (enzyme), the stoichiometry N in assay [1] worked out at 2.

In assay [2], Porites astreoides caspase-3 (enzyme) yielded a stoichiometry N of 2.

For orientation: stoichiometry N means a count of units in the complex or per binding partner.
